Source: patent US6518412B1, “Gene therapy approaches to supply apolipoprotein A-I agonists and their use to treat dyslipidemic disorders” (priority 1997, dated 2003)

Assays:
Assay type in all cases: physicochemical
[1] = Circular dichroism, degree of helicity (free, SUVs, micelles, TFE)
Procedure: Far UV circular dichroism spectra were recorded between 190 and 260 nm (in 0.5 nm or 0.2 nm increments) with a AVIV62DS spectrometer (AVIV Associates, Lakewood, N.J., USA) equipped with a thermoelectric cell holder and sample changer. The instrument was calibrated with (+)-10-[…]. Between one and three scans were collected for each sample, using 10 cm, 5 cm, 1 cm and 0.1 cm path length quartz Suprasil cells, respectively, for peptide concentrations of 10^−7 M to 10^−4 M. The bandwidth was fixed at 1.5 nm and the scan speed to is per wavelength step. The reported data are the mean of at least 2 or 3 independent measurements.
After background substraction, spectra were converted to molar ellipticity (θ) per residue in deg. […] dmol^−1. The peptide concentration was determined by amino acid analysis and also by absorption spectrometry on a Perkin Elmer Lambda 17 UV/Visible spectrophotometer when the peptide contained a chromophore (tryptophane, dansyl, naphtylalanine). […]
All spectra were recorded at 37° C. The stability of peptide 210 (SEQ ID NO:210) as a function of temperature (both free in buffer and in micelles) was determined by recording spectra at a series of different temperatures.
The degree of helicity of peptide 210 (SEQ ID NO:210) as a function of concentration was also determined.
The degree of helicity of the peptides in the various conditions was determined from the mean residue ellipticity at 222 nm (Chen et al., 1974, Biochemistry 13:3350-3359) or by comparing the CD spectra obtained to reference spectra available on databases (16 helical reference spectra from Provencher & Glockner, 1981, Biochemistry 20:33-37; denatured protein reference spectra from Venyaminov et al., 1993, Anal. Biochem. 214:17-24) using the CONTIN curve-fitting algorithm version 2DP, CD-1 pack (August 1982) (Provencher, 1982, Comput. Phys. Commun. 27:213-227, 229-242). Acceptable fit was determined using the statistical analysis methodology provided by the CONTIN algorithm. […]

[2] = NMR analysis of peptide structure; details: 25% TFE at 295 K
Procedure: Samples were prepared by dissolving 5 mg of peptide in 90% H2O/10% D2O containing trace amounts of 2,2-Dimethyl-2-sila-5-pentane sulfonate (DSS) as an internal chemical shift reference. Some of the samples contained trifluoroethanol (TFE) (expressed as % vol). The total sample volume was 500 μl and the concentration of peptide was approximately 5 mM.
^1H NMR spectra were acquired at 500 MHz using a Bruker DRX500 spectrometer equipped with a B-VT2000 temperature control unit. One and two-dimensional experiments were recorded using standard pulse sequences. (Two Dimensional NMR Spectroscopy, Eds. W. R. Croasmun and RMK Carlson, 1994, VCH Publishers, New York, USA). […] Two-dimensional experiments were carried out in the phase sensitive mode using time proportional phase incrementation (TPPI) and a spectral width of 6000 Hz in both dimensions. Typically, 40 scans were co-added for 400 t1 increments with 2048 data points. […]
Complete proton resonance assignments were obtained by applying the sequential assignment technique using DQFCOSY, TOCSY and NOESY spectra as described in the literature (Wuthrich, NMR of Proteins and Nucleic Acids, 1986, John Wiley & Sons, New York, USA). Secondary chemical shifts were calculated for HN and Ha protons by subtracting the tabulated random coil chemical shifts (Wishart and Sykes, 1994, Method. Enz. 239:363-392) from the corresponding experimental values.

[3] = Superose 6 gel filtration chromatography of peptide-lipid complexes; details: 1 mg peptide and 3 mgs DPPC, colyophilized, 0.9% NaCl
Procedure: One mg of peptide 149 ([…]; SEQ ID NO:149) was dissolved in 250 μl HPLC grade methanol (Perkin Elmer) in a one ml clear glass vial with cap (Waters #WAT025054). Dissolving of the peptide was aided by occasional vortexing over a period of 10 minutes at room temperature. To this mixture an aliquot containing 3 mg dipalmitoyl-phosphatidyl-choline (DPPC; Avanti Polar Lipids, 99% Purity, product #850355) from a 100 mg/ml stock solution in methanol was added. The volume of the mixture was brought to 400 μl by addition of methanol, and the mixture was further vortexed intermittently for a period of 10 minutes at room temperature. To the tube 200 μl of xylene (Sigma-Aldrich 99% pure, HPLC-grade) was added and the tubes were vortexed for 10 seconds. […]
Peptide-phospholipid complexes containing peptide 149 (SEQ ID NO:149) were prepared by colyophilization as described above. […] The chromatography was monitored by absorbance or scattering of light of wavelength 280 nm. […] The vast majority of both phospholipid and UV absorbance were recovered together in a few fractions with peaks at approximately 15.8 mls. […]
For comparison, a separate chromatogram of 20 μl of human HDL2 was run under the same conditions and using the same column as the peptide 149 complexes. […] The column eluate was monitored by absorbance or scattering of light of wavelength 254 nm. […]

| Sequence | stability of α-helical structure with temperature [1] | helicity in the presence of TFE ([1]; TFE) | helicity ([1]; in micelles) [%] | conformation from Hα secondary shifts [2] | Stokes' diameter [3] [Angstroms] |
| --- | --- | --- | --- | --- | --- |
| PVLDLFRELLEELKQKLK [peptide 210] | completely stable | increases | 63 | highly helical conformation |  |
| PVLELFENLWERLLDALQKKLK [peptide 149] |  |  |  |  | 87 |
